Here are results for five molecules from publication PMC11882963 (Nature Communications, 2024).

Data set [1] addresses T1, MntR WT (Bacillus subtilis, UniProt P54512 1-142).
T1 sequence: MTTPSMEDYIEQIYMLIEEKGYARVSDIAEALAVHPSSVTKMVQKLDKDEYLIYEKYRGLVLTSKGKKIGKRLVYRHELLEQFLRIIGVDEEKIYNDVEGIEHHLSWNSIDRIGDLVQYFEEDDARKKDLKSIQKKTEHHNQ
Description: FSEC.

The target of data set [2] is T2, MntR D27A (Bacillus subtilis, UniProt P54512 1-142, D27A).
T2 sequence: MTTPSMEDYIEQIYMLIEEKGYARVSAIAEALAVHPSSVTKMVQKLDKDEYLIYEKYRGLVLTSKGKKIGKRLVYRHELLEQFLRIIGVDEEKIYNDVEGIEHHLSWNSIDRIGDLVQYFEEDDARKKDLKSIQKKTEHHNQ
Description: FSEC.

Data set [3] deals with T3, MntR Y22A (Bacillus subtilis, UniProt P54512 1-142, Y22A).
T3 sequence: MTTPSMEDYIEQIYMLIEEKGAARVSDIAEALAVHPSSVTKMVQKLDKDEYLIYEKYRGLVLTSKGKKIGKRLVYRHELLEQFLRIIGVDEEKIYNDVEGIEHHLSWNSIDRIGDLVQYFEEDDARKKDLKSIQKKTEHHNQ
Description: FSEC.

The target of data set [4] is T2, MntR D27A. Briefly: mass photometry.
Data set [5] addresses T1, MntR WT. Description: cryo-EM.
The data set “mass photometry” concerns the molecule itself. Briefly: mass photometry.
For data set [6], the target named is T3, MntR Y22A. Description: mass photometry.
In data set [7] the target is T2, MntR D27A. Description: mass photometry. This is another data set of the same source.
Data set [8] addresses T1, MntR WT. Briefly: mass photometry.
Data set [9] deals with T1, MntR WT. Description: FSEC. This is another data set of the same source.

B1: P26 (mneP site 1) (dsDNA)
DNA 1: CAACGTTGCTATAGACCCACTCGAAA
DNA 2: TTTCGAGTGGGTCTATAGCAACGTTG
Consider B1, for which the binding result with MntR WT [1], with MntR D27A [2] and with MntR Y22A [3] was “no binding” throughout.

B2: P84 (mneP regulatory region) (dsDNA)
DNA 1: CCTTTTTAGCATAGCTCCAACTTTTTTTCTGTCACCTTATTTATTAGTAAACAGGAAACAACGTTGCTATAGACCCACTCGAAG
DNA 2: CTTCGAGTGGGTCTATAGCAACGTTGTTTCCTGTTTACTAATAAATAAGGTGACAGAAAAAAAGTTGGAGCTATGCTAAAAAGG
B2: the binding result in the data set with MntR D27A [4] and in the data set with MntR WT [5] was “binds” throughout.

B3: Bacillus subtilis MntR, wild type (natural protein)
chain: MTTPSMEDYIEQIYMLIEEKGYARVSDIAEALAVHPSSVTKMVQKLDKDEYLIYEKYRGLVLTSKGKKIGKRLVYRHELLEQFLRIIGVDEEKIYNDVEGIEHHLSWNSIDRIGDLVQYFEEDDARKKDLKSIQKKTEHHNQ
For B3, the “stoichiometry N” value in the data set “mass photometry” was found to be 2.

B4: C84 (four consensus MntR sites) (dsDNA)
DNA 1: CCTTTTTTGCCTTAAGGAAACTTTTTTGCCTTAAGGAAACTTATTTGCCTTAAGGAAACTACTTTGCCTTAAGGAAACTCGAAG
DNA 2: CTTCGAGTTTCCTTAAGGCAAAGTAGTTTCCTTAAGGCAAATAAGTTTCCTTAAGGCAAAAAAGTTTCCTTAAGGCAAAAAAGG
On to B4, for which the binding result with MntR Y22A [6], in the data set with MntR D27A [7] and with MntR WT [8] was “binds” in each case.

B5: H26 (mntH operator) (dsDNA)
DNA 1: GATAATTTGCCTTAAGGAAACTCTTC
DNA 2: GAAGAGTTTCCTTAAGGCAAATTATC
For B5, the binding result with MntR D27A [2], in the data set with MntR Y22A [3] and with MntR WT [9] was “binds” each time.

The stoichiometry N is the number of molecules, sites or subunits per partner or assembly.
